From PMC4164303 (Science (New York, N.Y.), 2014)

Biological target: the molecule itself
Assay: AUC

B1: EC1–2 of mouse E-cadherin (domain or fragment)
chain: DWVIPPISCPENEKGEFPKNLVQIKSNRDKETKVFYSITGQGADKPPVGVFIIERETGWLKVTQPLDREAIAKYILYSHAVSSNGEAVEDPMEIVITVTDQNDNRPEFTQEVFEGSVAEGAVPGTSVMKVSATDADDDVNTYNAAIAYTIVSQDPELPHKNMFTVNRDTGVISVLTSGLDRESYPTYTLVVQAADLQGEGLSTTAKAVITVKD
Kd: ~175 µM
